Experimental data: the supplement of paper PMC6755084

B1: F1*; the commonest letter at each place (parent)
chain: GAGACCGCAACTGAAAAGTTGTTATCACTTGTCGTAAGACACTTTGGATGGGTTGAAGTTCTGCACGTAGAAGCAAAAGGC

Variants of: B1
Test: fraction ligated after 30 min (ligated reads / total reads); higher = more ligase activity
Conditions: with F1*sub RNA substrate (template-directed ligation), 42 °C
Procedure: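 Chip-synthesised pool of F1* ligase ribozyme variants (all single and double substitutions, single, double and triple deletions in the catalytic core and GAA bulge, plus designed variants) was transcribed with T7 and reacted as a pool with excess substrate F1*sub for 30 min at 42 C in 50 mM EPPS pH 8.5, 25 mM MgCl2. Ligated and unligated bands were separated by PAGE, barcoded by RT and deep sequenced; fraction ligated = ligated reads / total reads per variant, relative activity = FL / FL of wild type (0.826). Sequences are the DNA template of the ribozyme.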

| Variant | fraction ligated |
| --- | --- |
| GAGACCGCAACTGAAAAGTTGTTAGCACTTGTCGTAAGACACTTTGGATGGGTTTAAGTTCTGCACGTAGAAGCAAAAGGC | 0.132 |
| GAGACCGCAACTGAAAAGTTGTTAGCACATGTCGTAAGACACTTTGGATGGGTTGAAGTTCTGCACGTAGAAGCAAAAGGC | 0.773 |
| GAGACCGCAACTGAAAAGTTGTTAGCACCTGTCGTAAGACACTTTGGATGGGTTGAAGTTCTGCACGTAGAAGCAAAAGGC | 0.385 |
| GAGACCGCAACTGAAAAGTTGTTAGCACGTGTCGTAAGACACTTTGGATGGGTTGAAGTTCTGCACGTAGAAGCAAAAGGC | 0.714 |
| GAGACCGCAACTGAAAAGTTGTTAGCACTAGTCGTAAGACACTTTGGATGGGTTGAAGTTCTGCACGTAGAAGCAAAAGGC | 0.674 |
| GAGACCGCAACTGAAAAGTTGTTAGCACTCGTCGTAAGACACTTTGGATGGGTTGAAGTTCTGCACGTAGAAGCAAAAGGC | 0.372 |
| GAGACCGCAACTGAAAAGTTGTTAGCACTGGTCGTAAGACACTTTGGATGGGTTGAAGTTCTGCACGTAGAAGCAAAAGGC | 0.776 |
| GAGACCGCAACTGAAAAGTTGTTAGCACTTGACGTAAGACACTTTGGATGGGTTGAAGTTCTGCACGTAGAAGCAAAAGGC | 0.324 |
| GAGACCGCAACTGAAAAGTTGTTAGCACTTGCCGTAAGACACTTTGGATGGGTTGAAGTTCTGCACGTAGAAGCAAAAGGC | 0.364 |
| GAGACCGCAACTGAAAAGTTGTTAGCACTTGGCGTAAGACACTTTGGATGGGTTGAAGTTCTGCACGTAGAAGCAAAAGGC | 0.293 |
| GAGACCGCAACTGAAAAGTTGTTAGCACTTGTCGAAAGACACTTTGGATGGGTTGAAGTTCTGCACGTAGAAGCAAAAGGC | 0.787 |
| GAGACCGCAACTGAAAAGTTGTTAGCACTTGTCGCAAGACACTTTGGATGGGTTGAAGTTCTGCACGTAGAAGCAAAAGGC | 0.785 |
| GAGACCGCAACTGAAAAGTTGTTAGCACTTGTCGGAAGACACTTTGGATGGGTTGAAGTTCTGCACGTAGAAGCAAAAGGC | 0.804 |
| GAGACCGCAACTGAAAAGTTGTTAGCACTTGTCGTAAGACACATTGGATGGGTTGAAGTTCTGCACGTAGAAGCAAAAGGC | 0.684 |
| GAGACCGCAACTGAAAAGTTGTTAGCACTTGTCGTAAGACACCTTGGATGGGTTGAAGTTCTGCACGTAGAAGCAAAAGGC | 0.409 |
| GAGACCGCAACTGAAAAGTTGTTAGCACTTGTCGTAAGACACGTTGGATGGGTTGAAGTTCTGCACGTAGAAGCAAAAGGC | 0.515 |
| GAGACCGCAACTGAAAAGTTGTTAGCACTTGTCGTAAGACACTATGGATGGGTTGAAGTTCTGCACGTAGAAGCAAAAGGC | 0.737 |

| Variant | fraction ligated |
| --- | --- |
| GAGACCGCAACTGAAAAGTTGTTAGCACTTGTCGTAAGACACTCTGGATGGGTTGAAGTTCTGCACGTAGAAGCAAAAGGC | 0.741 |
| GAGACCGCAACTGAAAAGTTGTTAGCACTTGTCGTAAGACACTGTGGATGGGTTGAAGTTCTGCACGTAGAAGCAAAAGGC | 0.474 |
| GAGACCGCAACTGAAAAGTTGTTAGCACTTGTCGTAAGACACTTAGGATGGGTTGAAGTTCTGCACGTAGAAGCAAAAGGC | 0.0602 |
| GAGACCGCAACTGAAAAGTTGTTAGCACTTGTCGTAAGACACTTCGGATGGGTTGAAGTTCTGCACGTAGAAGCAAAAGGC | 0.0153 |
| GAGACCGCAACTGAAAAGTTGTTAGCACTTGTCGTAAGACACTTGGGATGGGTTGAAGTTCTGCACGTAGAAGCAAAAGGC | 0.0229 |
| GAGACCGCAACTGAAAAGTTGTTAGCACTTGTCGTAAGACACTTTGGAAGGGTTGAAGTTCTGCACGTAGAAGCAAAAGGC | 0.723 |
| GAGACCGCAACTGAAAAGTTGTTAGCACTTGTCGTAAGACACTTTGGACGGGTTGAAGTTCTGCACGTAGAAGCAAAAGGC | 0.527 |
| GAGACCGCAACTGAAAAGTTGTTAGCACTTGTCGTAAGACACTTTGGAGGGGTTGAAGTTCTGCACGTAGAAGCAAAAGGC | 0.779 |
| GAGACCGCAACTGAAAAGTTGTTATAACTTGTCGTAAGACACTTTGGATGGGTTGAAGTTCTGCACGTAGAAGCAAAAGGC | 0.788 |
| GAGACCGCAACTGAAAAGTTGTTATACCTTGTCGTAAGACACTTTGGATGGGTTGAAGTTCTGCACGTAGAAGCAAAAGGC | 0.842 |
| GAGACCGCAACTGAAAAGTTGTTATAGCTTGTCGTAAGACACTTTGGATGGGTTGAAGTTCTGCACGTAGAAGCAAAAGGC | 0.747 |
| GAGACCGCAACTGAAAAGTTGTTATATCTTGTCGTAAGACACTTTGGATGGGTTGAAGTTCTGCACGTAGAAGCAAAAGGC | 0.747 |
| GAGACCGCAACTGAAAAGTTGTTATAACTTGTCGTCAGACACTTTGGATGGGTTGAAGTTCTGCACGTAGAAGCAAAAGGC | 0.79 |
| GAGACCGCAACTGAAAAGTTGTTATAACTTGTCGTGAGACACTTTGGATGGGTTGAAGTTCTGCACGTAGAAGCAAAAGGC | 0.781 |
| GAGACCGCAACTGAAAAGTTGTTATAACTTGTCGTTAGACACTTTGGATGGGTTGAAGTTCTGCACGTAGAAGCAAAAGGC | 0.823 |
| GAGACCGCAACTGAAAAGTTGTTATAACTTGTCGTACGACACTTTGGATGGGTTGAAGTTCTGCACGTAGAAGCAAAAGGC | 0.781 |
| GAGACCGCAACTGAAAAGTTGTTATAACTTGTCGTAGGACACTTTGGATGGGTTGAAGTTCTGCACGTAGAAGCAAAAGGC | 0.785 |
